Experimental data published in patent publication US7326418B2, “Identification of novel factors that block programmed cell death or apoptosis by targeting JNK” (University of Chicago, priority 2001, dated 2008).

B1: Gadd45β: purified recombinant His6-tagged Gadd45β protein; also used generically for the recombinant Gadd45β proteins (protein, UniProt O75293 1-160, looked up)
Growth arrest and DNA …: MTLEELVACDNAAQKMQTVTAAVEELLVAAQRQDRLTVGVYESAKLMNVDPDSVVLCLLAIDEEEEDDIALQIHFTLIQSFCCDNDINIVRVSGMQRLAQLLGEPAETQGTTEARDLHCLLVTNPHTDAWKSHGLVEVASYCEESRGNNQWVPYISLQER
modifications: His6 tag
notes: purified recombinant His6-tagged Gadd45β protein; also used generically for the recombinant Gadd45β proteins
B2: His6-Gadd45β: human full-length Gadd45β purified from E. coli as His6-tagged protein (protein, UniProt O75293 1-160, looked up)
chain: B1 Growth arrest and DNA …
modifications: full-length His6 tag
notes: human full-length Gadd45β purified from E. coli as His6-tagged protein
B3: GST-Gadd45β: full-length murine Gadd45β directly fused to GST, purified from E. coli (protein)
chain: MTLEELVASDNAVQKMQAVTAAVEQLLVAAQRQDRLTVGVYEAAKLMNVDPDSVVLCLLAIDEEEEDDIALQIHFTLIQSFCCDNDIDIVRVSGMQRLAQLLGEPAETLGTTEARDLHCLLVTNCHTDSWKSQGLVEVASYCEESRGNNQWVPYISLEER
modifications: left off: a dimerising Fc or GST
notes: full-length murine Gadd45β directly fused to GST, purified from E. coli

What follows are molecules tested against T1, ASK1 (Homo sapiens, UniProt Q99683) (assay: Kinase assay of immunoprecipitated FLAG-ASK1 with recombinant Gadd45β proteins). Details: in vitro, even at high concentrations.
T1 sequence (Q99683 1-1374): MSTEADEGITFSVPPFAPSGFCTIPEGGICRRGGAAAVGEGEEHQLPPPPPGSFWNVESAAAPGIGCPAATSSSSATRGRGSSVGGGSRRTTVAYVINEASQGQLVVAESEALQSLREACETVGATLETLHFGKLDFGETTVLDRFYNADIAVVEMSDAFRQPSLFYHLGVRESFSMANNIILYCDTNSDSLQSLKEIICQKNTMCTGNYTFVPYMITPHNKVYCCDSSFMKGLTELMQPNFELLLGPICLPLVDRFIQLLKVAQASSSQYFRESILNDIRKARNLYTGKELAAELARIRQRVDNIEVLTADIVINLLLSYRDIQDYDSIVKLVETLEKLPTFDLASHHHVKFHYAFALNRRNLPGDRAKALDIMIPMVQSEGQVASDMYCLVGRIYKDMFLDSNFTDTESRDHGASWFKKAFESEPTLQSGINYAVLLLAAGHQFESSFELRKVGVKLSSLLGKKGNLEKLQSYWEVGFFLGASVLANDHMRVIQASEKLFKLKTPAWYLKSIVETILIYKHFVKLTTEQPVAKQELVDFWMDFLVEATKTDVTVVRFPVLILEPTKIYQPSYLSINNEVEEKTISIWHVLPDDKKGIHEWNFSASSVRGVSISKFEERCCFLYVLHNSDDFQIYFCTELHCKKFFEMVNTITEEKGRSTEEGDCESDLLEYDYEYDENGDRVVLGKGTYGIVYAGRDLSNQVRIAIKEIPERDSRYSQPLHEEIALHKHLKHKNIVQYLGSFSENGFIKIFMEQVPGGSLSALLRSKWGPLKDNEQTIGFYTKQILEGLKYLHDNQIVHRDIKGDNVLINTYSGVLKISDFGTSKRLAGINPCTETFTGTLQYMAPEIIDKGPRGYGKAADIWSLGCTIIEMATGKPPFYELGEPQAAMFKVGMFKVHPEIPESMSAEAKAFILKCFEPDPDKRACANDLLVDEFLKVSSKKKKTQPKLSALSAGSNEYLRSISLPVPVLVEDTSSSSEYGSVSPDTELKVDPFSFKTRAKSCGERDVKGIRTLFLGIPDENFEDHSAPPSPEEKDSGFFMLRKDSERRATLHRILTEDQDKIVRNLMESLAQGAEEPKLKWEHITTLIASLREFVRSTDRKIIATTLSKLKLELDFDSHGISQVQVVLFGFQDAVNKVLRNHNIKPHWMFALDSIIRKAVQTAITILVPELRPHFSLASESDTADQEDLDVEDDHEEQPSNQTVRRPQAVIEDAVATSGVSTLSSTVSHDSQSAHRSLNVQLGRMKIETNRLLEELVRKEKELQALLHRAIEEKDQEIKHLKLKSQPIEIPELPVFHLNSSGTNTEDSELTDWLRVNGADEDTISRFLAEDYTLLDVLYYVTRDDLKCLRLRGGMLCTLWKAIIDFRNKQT
Assay type: biochemical
Design: expressed in transfected cells; host or cells: HEK-293; anti-FLAG immunoprecipitate
Description: Next, the functional consequences, in vitro, of the physical interactions of Gadd45β with kinases in the JNK pathway were assessed. Murine and human, full-length Gadd45J3 proteins were purified from E. coli as GST-Gadd45β and His6-tagged Gadd45β (His6 disclosed as SEQ ID NO: 46), respectively, according to standard procedures. Prior to employing these proteins in in vitro assays, purity of all recombinant polypeptides was assured by >98%, by performing Coomassie blue staining of SDS polyacrylamide gels. Then, the ability of these proteins, as well as of control GST and His6-EF3 (His6 disclosed as SEQ ID NO: 46)proteins, to inhibit kinases in the JNK pathways was monitored in vitro. FLAG-tagged JNKK2, JNKK1, MKK3, and ASK1 were immunoprecipitated from transiently transfected 293 cells using anti-FLAG antibodies and pre-incubated for 10 minutes with increasing concentrations of recombinant proteins, prior to the addition of specific kinase substrates (i.e. GST-JNK1 with JNKK1 and JNKK2; GST-p38[…] with MKK3; GST-JNNK1 or GST-JNKK2 with ASK1). […] These findings indicate that, upon binding to Gadd45β, JNKK2 is effectively inactivated.
A question was whether Gadd45β inhibited active MKK7, in vitro. FLAG-MKK7 was immunoprecipitated from TNFα-treated or untreated 293 cells, and kinase assays were performed in the presence of purified His6-Gadd45β (His6 disclosed as SEQ ID NO: 46), GST-Gadd45β, or control proteins (FIG. 28d; see also FIG. 28g). […] Consistent with the in vivo findings (FIG. 27), the inhibitory activity of Gadd45β was specific. […] Indeed, the effects of Gadd45β on MKK7 phosphorylation by TNFα may be due inhibition of the MKK7 ability to auto-phoshorylate and/or to serve as substrate for upstream kinases. Altogether, the findings identify MKK7 as a target of Gadd45β, and of NF-[…]B, in the JNK cascade. Of interest, MKK7 is a selective activator of JNK, and its ablation abolishes JNK activation by TNFα. Thus, blockade of MKK7 is sufficient on its own to explain the effects of Gadd45β on JNK signaling—i.e. its specific and near-complete suppression of this signaling. […]

Row | Molecule | effect on ASK1 kinase activity
1 | B1 | did not hamper
2 | B2 | neither GST-Gadd45β nor His6-Gadd45β (His6 disclosed as SEQ ID NO: 46) had significant effects
3 | B3 | neither GST-Gadd45β nor His6-Gadd45β (His6 disclosed as SEQ ID NO: 46) had significant effects
